# Measurements: patent US20120184713
# Tests used:
# [1] = system: T1, Peptide1, OPN-ASARM peptide (human Osteopontin 115Asp to 132Leu with N-terminal Arg-Lys-Arg)
# T1 sequence: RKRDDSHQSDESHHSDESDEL
# [2] = system: T2, Peptide3, OPN-ASARM derivative with the three G-CK consensus Ser residues changed to Ala
# T2 sequence: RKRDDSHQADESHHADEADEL
# [3] = system: T3, Peptide4, OPN-ASARM derivative with the other two Ser residues changed to Ala
# T3 sequence: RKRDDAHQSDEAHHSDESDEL
substance,measurement,setting,value
Casein Kinase I (NEB),in vitro kinase assay with peptide substrate,[1],CKI also phosphorylated OPN-ASARM
same,in vitro kinase assay with peptide substrate,[2],"had reduced, but similar levels of activity on both OPN-ASARM^3S-A and OPN-ASARM^2S-A"
same,in vitro kinase assay with peptide substrate,[3],"had reduced, but similar levels of activity on both OPN-ASARM^3S-A and OPN-ASARM^2S-A"
